These results are taken from PMC5342696.

This test has as its target membrane IgG (mIgG) on IgG-expressing B-cell lines (human (endogenous in CRL 2632 and CRL 2289)) [IgG part: P01857]. The experiment in a line: hemadsorption/hemagglutination (protein G-RBC rosetting); mIgG-expressing B-cells exposed to protein G-RBCs at 4°C without added mAb, rosettes scored by phase contrast microscopy.

A value given as a limit tells only on which side of the number the result lay.

Take “protein G on red blood cells (protein G-RBC) (from UniProt P19909 34-562) (natural protein)”: the HA background (percent rosetted cells) is < 30%.
